For 8 molecules, IC50 results are on record in patent US20140087995A1 (published 2014).

The target of this assay is T1, human amylin receptor (amylin 3(a) receptor: human calcitonin receptor with RAMP-3) (human, UniProt P30988 25-474; O60896 24-148).
T1 construct: whole, on cells; also called hAmylin-R; hAmylinR
T1 sequence (looked up) 1: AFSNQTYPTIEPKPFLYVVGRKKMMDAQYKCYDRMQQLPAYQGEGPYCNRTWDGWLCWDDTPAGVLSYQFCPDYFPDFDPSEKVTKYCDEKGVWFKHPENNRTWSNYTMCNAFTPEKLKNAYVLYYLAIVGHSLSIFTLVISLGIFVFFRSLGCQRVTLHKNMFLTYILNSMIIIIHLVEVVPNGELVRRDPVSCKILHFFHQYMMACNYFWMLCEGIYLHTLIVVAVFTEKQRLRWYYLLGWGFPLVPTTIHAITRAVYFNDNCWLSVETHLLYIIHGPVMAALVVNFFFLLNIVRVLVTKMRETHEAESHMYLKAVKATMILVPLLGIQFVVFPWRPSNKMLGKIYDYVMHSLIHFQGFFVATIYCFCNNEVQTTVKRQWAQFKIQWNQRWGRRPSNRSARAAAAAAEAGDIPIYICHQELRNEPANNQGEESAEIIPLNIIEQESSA
T1 sequence (looked up) 2: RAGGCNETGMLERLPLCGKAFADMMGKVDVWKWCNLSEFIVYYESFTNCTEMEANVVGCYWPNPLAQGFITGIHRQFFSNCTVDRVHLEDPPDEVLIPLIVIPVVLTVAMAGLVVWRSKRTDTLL
Put plainly: SPA displacement of 125I-rat amylin, hAmylin 3(a) receptor membranes. The procedure:
The binding assay was performed using scintillation proximity assay (SPA) beads (RPNQ0001) from PerkinElmer and cell membranes from the Amylin 3(a)/CRE-luc cells (as described in Assay (II)) were used. Membranes were prepared in the following way; the cells were rinsed with PBS and incubated with Versene for approximately 5 min before harvesting. The cells were flushed with PBS and the cell-suspension was centrifuged for 5 min at 1000 rpm. Cells were homogenized (ultrathurrax) in a buffer containing 20 mM Na-HEPES and 10 mM EDTA (pH 7.4) and centrifuged at 20.000 rpm for 15 min. The resulting pellet was resuspended, homogenized and centrifuged (20.000 rpm, 15 min) in a buffer containing 20 mM Na-HEPES and 0.1 mM EDTA (pH 7.4, buffer 2). The resulting pellet was resuspended in buffer 2 and protein concentration was measured (BCA protein Assay, Pierce). The homogenate was kept cold during the whole procedure. The membranes were kept at −80° C. until use. The assay was performed in a 384 well Optiplate (PerkinElmer) in a total volume of 40 ul. Membranes were mixed with SPA beads. Final concentration of membranes 35 ng/μL final and SPA beads was 0.05 mg/well. Test-compounds were dissolved in DMSO and further diluted in assay buffer (50 mM Hepes, pH 7.4, 1 mM CaCl2, 5 mM MgCl₂, 0.1% OA and 0.02% Tween20). […] The final mixture was incubated with shaking at 400 rpm for 120 min at 25° C. prior to centrifugation (1500 rpm, 10 min). Samples were analyzed on TopCounter™ (Packard). The IC₅₀ was calculated using (one site binding competition analysis) GraphPad Prism5 as a measure of receptor affinity.
In general terms: Displacement assays read how much labelled ligand stays bound in the presence of the test substance.

Numbered stars: 1 amine (or outer) side, 2 acyl side, 3 side chain; on linkers, the order of the positions; unused ones are H or OH. Bridge positions count the residues as written; N and C are the ends. * marks the point of attachment. C20 diacid = O=C(O)CCCCCCCCCCCCCCCCCCC(=O)*; γGlu = O=C(O)[C@H](CCC(=O)[*:2])N[*:1]

Broadly, the IC50 is the concentration that inhibits the measured activity by half.

B1: N^α1-[(4S)-4-carboxy-4-(19-carboxynonadecanoylamino)butanoyl]-[Glu14,Arg17,Pro21,Pro27,Asp35,Pro37]-h-amylin (peptide)
peptide: {C20 diacid-γGlu}-KCNTATCATQRLAEFLRHSSPNFGAIPSSTNVGSDTP-NH2
modifications: disulfide 2-7
SMILES: CC[C@H](C)[C@H](NC(=O)[C@H](C)NC(=O)CNC(=O)[C@H](Cc1ccccc1)NC(=O)[C@H](CC(N)=O)NC(=O)[C@@H]1CCCN1C(=O)[C@H](CO)NC(=O)[C@H](CO)NC(=O)[C@H](Cc1c[nH]cn1)NC(=O)[C@H](CCCNC(=N)N)NC(=O)[C@H](CC(C)C)NC(=O)[C@H](Cc1ccccc1)NC(=O)[C@H](CCC(=O)O)NC(=O)[C@H](C)NC(=O)[C@H](CC(C)C)NC(=O)[C@H](CCCNC(=N)N)NC(=O)[C@H](CCC(N)=O)NC(=O)[C@@H](NC(=O)[C@H](C)NC(=O)[C@@H]1CSSC[C@H](NC(=O)[C@H](CCCCN)NC(=O)CC[C@H](NC(=O)CCCCCCCCCCCCCCCCCCC(=O)O)C(=O)O)C(=O)N[C@@H](CC(N)=O)C(=O)N[C@@H]([C@@H](C)O)C(=O)N[C@@H](C)C(=O)N[C@@H]([C@@H](C)O)C(=O)N1)[C@@H](C)O)C(=O)N1CCC[C@H]1C(=O)N[C@@H](CO)C(=O)N[C@@H](CO)C(=O)N[C@H](C(=O)N[C@@H](CC(N)=O)C(=O)N[C@H](C(=O)NCC(=O)N[C@@H](CO)C(=O)N[C@@H](CC(=O)O)C(=O)N[C@H](C(=O)N1CCC[C@H]1C(N)=O)[C@@H](C)O)C(C)C)[C@@H](C)O
notes: also called 11; compound 11
As to B1, the IC50 amounted to 105 pM.

B2: N^α1-[(4S)-4-carboxy-4-(19-carboxynonadecanoylamino)butanoyl]-[Glu14,Arg17,Pro21,Pro27,His35]-h-amylin (peptide)
peptide: {C20 diacid-γGlu}-KCNTATCATQRLAEFLRHSSPNFGAIPSSTNVGSHTY-NH2
modifications: disulfide 2-7
SMILES: CC[C@H](C)[C@H](NC(=O)[C@H](C)NC(=O)CNC(=O)[C@H](Cc1ccccc1)NC(=O)[C@H](CC(N)=O)NC(=O)[C@@H]1CCCN1C(=O)[C@H](CO)NC(=O)[C@H](CO)NC(=O)[C@H](Cc1c[nH]cn1)NC(=O)[C@H](CCCNC(=N)N)NC(=O)[C@H](CC(C)C)NC(=O)[C@H](Cc1ccccc1)NC(=O)[C@H](CCC(=O)O)NC(=O)[C@H](C)NC(=O)[C@H](CC(C)C)NC(=O)[C@H](CCCNC(=N)N)NC(=O)[C@H](CCC(N)=O)NC(=O)[C@@H](NC(=O)[C@H](C)NC(=O)[C@@H]1CSSC[C@H](NC(=O)[C@H](CCCCN)NC(=O)CC[C@H](NC(=O)CCCCCCCCCCCCCCCCCCC(=O)O)C(=O)O)C(=O)N[C@@H](CC(N)=O)C(=O)N[C@@H]([C@@H](C)O)C(=O)N[C@@H](C)C(=O)N[C@@H]([C@@H](C)O)C(=O)N1)[C@@H](C)O)C(=O)N1CCC[C@H]1C(=O)N[C@@H](CO)C(=O)N[C@@H](CO)C(=O)N[C@H](C(=O)N[C@@H](CC(N)=O)C(=O)N[C@H](C(=O)NCC(=O)N[C@@H](CO)C(=O)N[C@@H](Cc1c[nH]cn1)C(=O)N[C@H](C(=O)N[C@@H](Cc1ccc(O)cc1)C(N)=O)[C@@H](C)O)C(C)C)[C@@H](C)O
notes: also called 18; compound 18
Regarding B2, the 50% inhibitory concentration (IC50) was found to be 554 pM.

B3: N^α1-[(4S)-4-carboxy-4-(19-carboxynonadecanoylamino)butanoyl]-[Glu14,Arg17,Pro21,Pro27,Pro31]-h-amylin (peptide)
peptide: {C20 diacid-γGlu}-KCNTATCATQRLAEFLRHSSPNFGAIPSSTPVGSNTY-NH2
modifications: disulfide 2-7
SMILES: CC[C@H](C)[C@H](NC(=O)[C@H](C)NC(=O)CNC(=O)[C@H](Cc1ccccc1)NC(=O)[C@H](CC(N)=O)NC(=O)[C@@H]1CCCN1C(=O)[C@H](CO)NC(=O)[C@H](CO)NC(=O)[C@H](Cc1c[nH]cn1)NC(=O)[C@H](CCCNC(=N)N)NC(=O)[C@H](CC(C)C)NC(=O)[C@H](Cc1ccccc1)NC(=O)[C@H](CCC(=O)O)NC(=O)[C@H](C)NC(=O)[C@H](CC(C)C)NC(=O)[C@H](CCCNC(=N)N)NC(=O)[C@H](CCC(N)=O)NC(=O)[C@@H](NC(=O)[C@H](C)NC(=O)[C@@H]1CSSC[C@H](NC(=O)[C@H](CCCCN)NC(=O)CC[C@H](NC(=O)CCCCCCCCCCCCCCCCCCC(=O)O)C(=O)O)C(=O)N[C@@H](CC(N)=O)C(=O)N[C@@H]([C@@H](C)O)C(=O)N[C@@H](C)C(=O)N[C@@H]([C@@H](C)O)C(=O)N1)[C@@H](C)O)C(=O)N1CCC[C@H]1C(=O)N[C@@H](CO)C(=O)N[C@@H](CO)C(=O)N[C@H](C(=O)N1CCC[C@H]1C(=O)N[C@H](C(=O)NCC(=O)N[C@@H](CO)C(=O)N[C@@H](CC(N)=O)C(=O)N[C@H](C(=O)N[C@@H](Cc1ccc(O)cc1)C(N)=O)[C@@H](C)O)C(C)C)[C@@H](C)O
notes: also called 31; compound 31
As for B3, the IC50 was 204 pM.

B4: N^α1-[(4S)-4-carboxy-4-(19-carboxynonadecanoylamino)butanoyl]-[Glu14,Arg17,Pro21,Pro28,Glu35]-h-amylin (peptide)
peptide: {C20 diacid-γGlu}-KCNTATCATQRLAEFLRHSSPNFGAILPSTNVGSETY-NH2
modifications: disulfide 2-7
notes: also called 33; compound 33
B4: the IC50 turned out to be 915 pM.

B5: N^α1-[(4S)-4-carboxy-4-(19-carboxynonadecanoylamino)butanoyl]-[Glu14,Arg17,Pro21,Pro27,Pro29]-h-amylin (peptide)
peptide: {C20 diacid-γGlu}-KCNTATCATQRLAEFLRHSSPNFGAIPSPTNVGSNTY-NH2
modifications: disulfide 2-7
SMILES: CC[C@H](C)[C@H](NC(=O)[C@H](C)NC(=O)CNC(=O)[C@H](Cc1ccccc1)NC(=O)[C@H](CC(N)=O)NC(=O)[C@@H]1CCCN1C(=O)[C@H](CO)NC(=O)[C@H](CO)NC(=O)[C@H](Cc1c[nH]cn1)NC(=O)[C@H](CCCNC(=N)N)NC(=O)[C@H](CC(C)C)NC(=O)[C@H](Cc1ccccc1)NC(=O)[C@H](CCC(=O)O)NC(=O)[C@H](C)NC(=O)[C@H](CC(C)C)NC(=O)[C@H](CCCNC(=N)N)NC(=O)[C@H](CCC(N)=O)NC(=O)[C@@H](NC(=O)[C@H](C)NC(=O)[C@@H]1CSSC[C@H](NC(=O)[C@H](CCCCN)NC(=O)CC[C@H](NC(=O)CCCCCCCCCCCCCCCCCCC(=O)O)C(=O)O)C(=O)N[C@@H](CC(N)=O)C(=O)N[C@@H]([C@@H](C)O)C(=O)N[C@@H](C)C(=O)N[C@@H]([C@@H](C)O)C(=O)N1)[C@@H](C)O)C(=O)N1CCC[C@H]1C(=O)N[C@@H](CO)C(=O)N1CCC[C@H]1C(=O)N[C@H](C(=O)N[C@@H](CC(N)=O)C(=O)N[C@H](C(=O)NCC(=O)N[C@@H](CO)C(=O)N[C@@H](CC(N)=O)C(=O)N[C@H](C(=O)N[C@@H](Cc1ccc(O)cc1)C(N)=O)[C@@H](C)O)C(C)C)[C@@H](C)O
notes: also called 37; compound 37
Consider B5, for which the IC50 turned out to be 970 pM.

B6: N^α1-[(4S)-4-carboxy-4-(19-carboxynonadecanoylamino)butanoyl]-[Glu14,Arg17,Pro21,Pro27]-h-amylin (peptide)
peptide: KCNTATCATQRLAEFLRHSSPNFGAIPSSTNVGSNTY
modifications: C20 diacid-gGlu on alpha amino group of N-terminal Lys 1; Cys2-Cys7 disulfide; C-terminal amide
notes: also called compound 9
With B6, the IC50 was 143 pM.

B7: N^α1-[(4S)-4-carboxy-4-(19-carboxynonadecanoylamino)butanoyl]-[His14,Arg17,Pro21,Pro27,Glu35]-h-amylin (peptide)
peptide: {C20 diacid-γGlu}-KCNTATCATQRLAHFLRHSSPNFGAIPSSTNVGSETY-NH2
modifications: disulfide 2-7
SMILES: CC[C@H](C)[C@H](NC(=O)[C@H](C)NC(=O)CNC(=O)[C@H](Cc1ccccc1)NC(=O)[C@H](CC(N)=O)NC(=O)[C@@H]1CCCN1C(=O)[C@H](CO)NC(=O)[C@H](CO)NC(=O)[C@H](Cc1c[nH]cn1)NC(=O)[C@H](CCCNC(=N)N)NC(=O)[C@H](CC(C)C)NC(=O)[C@H](Cc1ccccc1)NC(=O)[C@H](Cc1c[nH]cn1)NC(=O)[C@H](C)NC(=O)[C@H](CC(C)C)NC(=O)[C@H](CCCNC(=N)N)NC(=O)[C@H](CCC(N)=O)NC(=O)[C@@H](NC(=O)[C@H](C)NC(=O)[C@@H]1CSSC[C@H](NC(=O)[C@H](CCCCN)NC(=O)CC[C@H](NC(=O)CCCCCCCCCCCCCCCCCCC(=O)O)C(=O)O)C(=O)N[C@@H](CC(N)=O)C(=O)N[C@@H]([C@@H](C)O)C(=O)N[C@@H](C)C(=O)N[C@@H]([C@@H](C)O)C(=O)N1)[C@@H](C)O)C(=O)N1CCC[C@H]1C(=O)N[C@@H](CO)C(=O)N[C@@H](CO)C(=O)N[C@H](C(=O)N[C@@H](CC(N)=O)C(=O)N[C@H](C(=O)NCC(=O)N[C@@H](CO)C(=O)N[C@@H](CCC(=O)O)C(=O)N[C@H](C(=O)N[C@@H](Cc1ccc(O)cc1)C(N)=O)[C@@H](C)O)C(C)C)[C@@H](C)O
notes: also called 30; compound 30
Turning to B7, the IC50 was 919 pM.

B8: N^α1-[(4S)-4-carboxy-4-(19-carboxynonadecanoylamino)butanoyl]-[Glu14,Arg17,Pro21,Pro27,Pro37]-h-amylin (peptide)
peptide: {C20 diacid-γGlu}-KCNTATCATQRLAEFLRHSSPNFGAIPSSTNVGSNTP-NH2
modifications: disulfide 2-7
notes: also called compound 8
B8: the IC50 came to 72 pM.
